# Numbering of substitutions follows the chain as printed. In names and notes the source's numbering stands.
# B1: hirudin mutein M 37 (L13T) (other)
# chain: VVYTDCTESGQNTCLCEGSVVCGQGNKCILGSDGEKNQCVTGEGTPKPESHNDGDFEEIPEEYLQ
# B2: hirudin mutein M 1 (I29A L30A) (other)
# chain: B1 chain with T13L, I29A, L30A
# B3: hirudin mutein M 67 (L30N) (other)
# chain: B1 chain with T13L, L30N
# B4: hirudin mutein M 77 (P48T) (other)
# chain: B1 chain with T13L, P48T
# B5: hirudin mutein M 48 (V21Q) (other)
# chain: B1 chain with T13L, V21Q
# B6: hirudin mutein M 21 (I29E L30R) (other)
# chain: B1 chain with T13L, I29E, L30R
# B7: hirudin mutein M 72 (L30T) (other)
# chain: B1 chain with T13L, L30T
# B8: hirudin mutein M 56 (I29N) (other)
# chain: B1 chain with T13L, I29N
# B9: hirudin mutein M 66 (L30K) (other)
# chain: B1 chain with T13L, L30K
# B10: hirudin mutein M 80 (D53R) (other)
# chain: B1 chain with T13L, D53R
# B11: hirudin mutein M 58 (I29R) (other)
# chain: B1 chain with T13L, I29R
# B12: hirudin mutein M 63 (L30E) (other)
# chain: B1 chain with T13L, L30E
# B13: hirudin mutein M 65 (L30H) (other)
# chain: B1 chain with T13L, L30H
# B14: hirudin mutein M 46 (V21N) (other)
# chain: B1 chain with T13L, V21N
# B15: hirudin mutein M 61 (L30A) (other)
# chain: B1 chain with T13L, L30A
# B16: hirudin mutein M 38 (L15A) (other)
# chain: B1 chain with T13L, L15A
# B17: hirudin mutein M 14 (I29A L30R) (other)
# chain: B1 chain with T13L, I29A, L30R
# B18: hirudin mutein M 52 (I29E) (other)
# chain: B1 chain with T13L, I29E
# B19: hirudin mutein M 79 (D53N) (other)
# chain: B1 chain with T13L, D53N
# B20: hirudin mutein M 51 (I29D) (other)
# chain: B1 chain with T13L, I29D
# B21: hirudin mutein M 64 (L30G) (other)
# chain: B1 chain with T13L, L30G
# B22: hirudin mutein M 55 (I29K) (other)
# chain: B1 chain with T13L, I29K
# B23: hirudin mutein M 76 (P48A) (other)
# chain: B1 chain with T13L, P48A
# B24: hirudin mutein M 69 (L30Q) (other)
# chain: B1 chain with T13L, L30Q
# B25: hirudin mutein M 59 (I29S) (other)
# chain: B1 chain with T13L, I29S
# B26: hirudin mutein M 54 (I29H) (other)
# chain: B1 chain with T13L, I29H
# B27: hirudin mutein M 15 (I29A L30T) (other)
# chain: B1 chain with T13L, I29A, L30T
# B28: hirudin mutein M 12 (I29A L30K) (other)
# chain: B1 chain with T13L, I29A, L30K
# B29: hirudin mutein M 47 (V21P) (other)
# chain: B1 chain with T13L, V21P
# B30: hirudin mutein M 75 (K47T) (other)
# chain: B1 chain with T13L, K47T
# B31: hirudin mutein M 78 (D53E) (other)
# chain: B1 chain with T13L, D53E
# B32: hirudin mutein M 81 (F56H) (other)
# chain: B1 chain with T13L, F56H
# B33: hirudin mutein M 70 (L30R) (other)
# chain: B1 chain with T13L, L30R
# B34: hirudin mutein M 39 (L15H) (other)
# chain: B1 chain with T13L, L15H
# B35: hirudin mutein M 49 (V21R) (other)
# chain: B1 chain with T13L, V21R
# B36: hirudin mutein M 71 (L30S) (other)
# chain: B1 chain with T13L, L30S
# B37: hirudin mutein M 73 (V40A) (other)
# chain: B1 chain with T13L, V40A
# B38: hirudin mutein M 17 (I29D L30Q) (other)
# chain: B1 chain with T13L, I29D, L30Q
# B39: hirudin mutein M 20 (I29E L30Q) (other)
# chain: B1 chain with T13L, I29E, L30Q
# B40: hirudin mutein M 62 (L30D) (other)
# chain: B1 chain with T13L, L30D
# B41: hirudin mutein M 57 (I29Q) (other)
# chain: B1 chain with T13L, I29Q
# B42: hirudin mutein M 22 (I29E L30T) (other)
# chain: B1 chain with T13L, I29E, L30T
# B43: hirudin mutein M 16 (I29D L30A) (other)
# chain: B1 chain with T13L, I29D, L30A
# B44: hirudin mutein M 13 (I29A L30Q) (other)
# chain: B1 chain with T13L, I29A, L30Q
# B45: hirudin mutein M 60 (I29T) (other)
# chain: B1 chain with T13L, I29T
# B46: hirudin mutein M 53 (I29G) (other)
# chain: B1 chain with T13L, I29G
# B47: hirudin mutein M 68 (L30P) (other)
# chain: B1 chain with T13L, L30P
# B48: hirudin mutein M 74 (V40T) (other)
# chain: B1 chain with T13L, V40T
# B49: hirudin mutein M 50 (I29A) (other)
# chain: B1 chain with T13L, I29A
# B50: hirudin mutein M 41 (L15T) (other)
# chain: B1 chain with T13L, L15T
# B51: hirudin mutein M 40 (L15Q) (other)
# chain: B1 chain with T13L, L15Q
# B52: hirudin mutein M 19 (I29E L30K) (other)
# chain: B1 chain with T13L, I29E, L30K
# Target: thrombin
# Assay: cell-based or functional assay
row,Binder,"Relative Activity (ratio of variant IC50/WT IC50), chromogenic thrombin inhibition assay [ratio]"
1,B1,0.6
2,B2,1.4
3,B3,1.54
4,B4,1
5,B5,0.83
6,B6,1.21
7,B7,1
8,B8,1
9,B9,1
10,B10,1
11,B11,1
12,B12,3.33
13,B13,1
14,B14,0.83
15,B15,1
16,B16,0.9
17,B17,2.7
18,B18,1
19,B19,1
20,B20,1
21,B21,2.2
22,B22,1
23,B23,1
24,B24,1
25,B25,1
26,B26,1

row,Binder,"Relative Activity (ratio of variant IC50/WT IC50), chromogenic thrombin inhibition assay [ratio]"
1,B27,1.21
2,B28,1.45
3,B29,1
4,B30,2.2
5,B31,1
6,B32,0.8
7,B33,1
8,B34,0.65
9,B35,0.77
10,B36,1.83
11,B37,1
12,B38,2
13,B39,1.52
14,B40,2
15,B41,1
16,B42,1.8
17,B43,1.6
18,B44,1.6
19,B45,1
20,B46,1.8
21,B47,1.83
22,B48,1
23,B49,1
24,B50,0.4
25,B51,0.34
26,B52,1.1

# — patent US20060140929A1 (Merck KGaA, published 2006)
